# Results: patent publication EP0659766A1
# T1: IL-1 receptors expressed on murine thymoma EL4 cells (murine) (UniProt P13504)
# T1 sequence (looked up): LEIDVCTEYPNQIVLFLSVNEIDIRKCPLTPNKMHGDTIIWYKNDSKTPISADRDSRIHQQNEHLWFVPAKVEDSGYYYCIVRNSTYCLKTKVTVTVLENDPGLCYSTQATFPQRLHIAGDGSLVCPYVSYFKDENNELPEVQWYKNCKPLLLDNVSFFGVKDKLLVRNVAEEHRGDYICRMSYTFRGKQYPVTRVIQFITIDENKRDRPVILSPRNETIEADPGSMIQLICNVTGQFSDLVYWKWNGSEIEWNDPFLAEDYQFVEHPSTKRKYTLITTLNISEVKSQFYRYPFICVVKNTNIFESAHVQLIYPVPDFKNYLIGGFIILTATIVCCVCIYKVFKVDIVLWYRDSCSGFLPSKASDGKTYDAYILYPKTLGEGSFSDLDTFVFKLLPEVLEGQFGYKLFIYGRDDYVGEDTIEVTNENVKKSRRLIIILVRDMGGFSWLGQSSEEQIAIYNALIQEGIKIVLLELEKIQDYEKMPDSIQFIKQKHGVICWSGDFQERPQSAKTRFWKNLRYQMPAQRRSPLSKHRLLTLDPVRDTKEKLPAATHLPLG
# Biological target: T1, IL-1 receptors expressed on murine thymoma EL4 cells (murine)
# Assay: binding of 70 pM human ¹²⁵I-IL-1α to 1 x 10⁶ EL4 cells, no serum
binder,measurement,value
"recombinant human IL-1 alpha (IL-1α) (ligand, UniProt P01583 113-271, looked up) SAPFSFLSNVKYNFMRIIKYEFILNDALNQSIIRANDQYLTAAALHNLDEAVKFDMGAYKSSKDDAKITVILRISKTQLYVTAQDEDQPVLLKEMPEIPKTITGSETNLLFFWETHGTKNYFTSVAHPNLFIATKQDYWVCLAGGPPSITDFQILENQA",¹²⁵I-IL-1α bound to EL4 cells (cpm),4520 cpm
